One may read the stoichiometry N as a count of units in the complex or per binding partner.

The results in this text go back to paper PMC12212125, “Constitutively active Arabidopsis cryptochrome two alleles identified using yeast selection and deep mutational scanning” (The Journal of Biological Chemistry, 2025).

Assay [1] concerns the target T1, pCRY-PHR (plant cryptochrome pCRY, PHR domain) (Chlamydomonas reinhardtii, UniProt Q42696, D393S).
T1 construct: gene CPH1; PHR domain, amino acids 1-504, N-terminal His6 and C-terminal StrepII tags (printed for D393S), E. coli BL21(DE3), pET-28a(+); theoretical mass 59 kDa, wild type monomeric in the dark
The experiment in a line: UV-vis absorbance and time-resolved UV-vis difference spectroscopy of purified protein. It is filed as binding. The note with it: 50 mM phosphate pH 7.8, 100 mM NaCl, 3 mM ATP, 1% glycerol, 10 °C, with or without 2 mM DTT; co-purified chromophore; time-resolved spectra at 13 °C without DTT.

Assay [2] concerns the target pCRY-PHR D393S (amino acids 1-504) (Chlamydomonas reinhardtii). The experiment in a line: SEC; Superdex 200 Increase 10/300 GL, under light exclusion at 4 °C, 50 mM Tris pH 7.8, 100 mM NaCl, 1 mM ATP, 1 mM MgCl2; samples at OD450 = 1; apparent masses from calibration.
The target of assay [3] is Region II mutations (V367M, K368E, Y399S, S401F, P405L) placed in the CRY2PHR background. The experiment in a line: two-hybrid; BD-CRY2PHR (1-498) variants and AD-CIB1, AH109 x Y187, beta-galactosidase reporter (Miller Units, ONPG), dark for 2 h.
Assay [4] deals with T2, CRY2PHR (residues 1-498 of CRY2, lacking the CCE), Gal4BD fusion, wild type (Arabidopsis thaliana, UniProt Q96524 1-498).
T2 construct: Cryptochrome 2 (CRY2), Arabidopsis thaliana, photolyase homology region, residues 1-498; also called BD-CRY2PHR; pDBTrp-CRY2PHR; source: yeast two-hybrid fusion (AH109 x Y187)
Put plainly: two-hybrid; BD-CRY2PHR (1-498) variants and AD-CIB1, AH109 x Y187, beta-galactosidase reporter (Miller Units, ONPG), light for 2 h. Conditions: partners not purified.

T2 sequence (Q96524 1-498): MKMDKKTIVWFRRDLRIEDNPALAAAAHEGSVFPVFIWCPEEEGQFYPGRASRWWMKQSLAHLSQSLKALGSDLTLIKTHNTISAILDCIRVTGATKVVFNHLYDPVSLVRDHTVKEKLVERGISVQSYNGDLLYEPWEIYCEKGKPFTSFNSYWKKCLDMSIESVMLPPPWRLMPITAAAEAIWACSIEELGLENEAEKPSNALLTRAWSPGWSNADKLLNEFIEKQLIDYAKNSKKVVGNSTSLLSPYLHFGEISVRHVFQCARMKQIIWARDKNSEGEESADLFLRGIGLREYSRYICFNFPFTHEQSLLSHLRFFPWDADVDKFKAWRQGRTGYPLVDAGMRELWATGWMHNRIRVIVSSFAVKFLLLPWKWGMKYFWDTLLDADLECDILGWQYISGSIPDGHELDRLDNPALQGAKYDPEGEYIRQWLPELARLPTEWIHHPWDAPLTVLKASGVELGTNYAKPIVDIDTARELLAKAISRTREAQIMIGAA
T1 sequence (Q42696 entry or part of it D393S): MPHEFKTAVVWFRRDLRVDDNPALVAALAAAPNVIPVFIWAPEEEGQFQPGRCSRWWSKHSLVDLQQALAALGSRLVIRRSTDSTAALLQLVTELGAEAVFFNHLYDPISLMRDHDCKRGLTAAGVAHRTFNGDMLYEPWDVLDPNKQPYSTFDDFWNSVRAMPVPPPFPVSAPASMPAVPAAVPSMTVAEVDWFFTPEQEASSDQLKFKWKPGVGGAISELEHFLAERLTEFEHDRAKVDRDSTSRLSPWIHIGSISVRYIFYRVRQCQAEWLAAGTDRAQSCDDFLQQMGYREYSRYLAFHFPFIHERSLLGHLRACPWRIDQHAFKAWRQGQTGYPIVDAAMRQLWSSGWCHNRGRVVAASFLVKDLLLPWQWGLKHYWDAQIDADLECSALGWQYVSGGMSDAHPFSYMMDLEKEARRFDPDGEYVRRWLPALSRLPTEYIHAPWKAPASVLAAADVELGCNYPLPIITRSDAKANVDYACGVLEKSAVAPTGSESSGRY

On to `Cc1cc2nc3c(=O)[nH]c(=O)nc-3n(C[C@H](O)[C@H](O)[C@H](O)COP(=O)(O)OP(=O)(O)OC[C@H]3O[C@@H](n4cnc5c(N)ncnc54)[C@H](O)[C@@H]3O)c2cc1C` [FAD], for which the “UV-vis absorbance and time-resolved UV-vis difference spectroscopy of purified p” value in assay [1] is reported as “The D393S mutant forms homomers in the dark with oxidized FAD bound”. Turning to “pCRY-PHR D393S (amino acids 1-504) (domain or fragment)”, in assay [2], the stoichiometry N was 2.

B1: CRYPTOCHROME-… BASIC-HELIX-LOOP-HELIX 1 (CIB1), Gal4AD fusion (natural protein)
chain: MNGAIGGDLLLNFPDMSVLERQRAHLKYLNPTFDSPLAGFFADSSMITGGEMDSYLSTAGLNLPMMYGETTVEGDSRLSISPETTLGTGNFKKRKFDTETKDCNEKKKKMTMNRDDLVEEGEEEKSKITEQNNGSTKSIKKMKHKAKKEENNFSNDSSKVTKELEKTDYIHVRARRGQATDSHSIAERVRREKISERMKFLQDLVPGCDKITGKAGMLDEIINYVQSLQRQIEFLSMKLAIVNPRPDFDMDDIFAKEVASTPMTVVPSPEMVLSGYSHEMVHSGYSSEMVNSGYLHVNPMQQVNTSSDPLSCFNNGEAPSMWDSHVQNLYGNLGV
For B1, in assay [3], the fold higher basal (dark) interaction than wild-type CRY2PHR (beta-galactosidase reporter) lay in the range of 4 to 7 fold.

B2: CRYPTOCHROME-INTERACTING BASIC-HELIX-LOOP-HELIX 1 (CIB1), Gal4AD fusion (natural protein, Arabidopsis thaliana, UniProt Q8GY61 1-335, looked up)
chain: B1 chain
notes: CIB1, transcription factor, Arabidopsis thaliana; also called GalAD-CIB1; Gal4AD-CIB1; source: yeast two-hybrid fusion (MaV203; Y187, mated to AH109)
With B2, the “fold increase of interaction (beta-galactosidase reporter) in light over dark” value in assay [4] came out at 4 fold.
